Measurements reported in patent publication US20250236682A1 (published 2025).

Target: human FcγRIIIA (176V isoform, R&D systems, 4325-FC) (human, UniProt P08637 17-208)
Test: BLI

Sequence of human FcγRIIIA (176V isoform, R&D systems, 4325-FC) (P08637 17-208 F176V): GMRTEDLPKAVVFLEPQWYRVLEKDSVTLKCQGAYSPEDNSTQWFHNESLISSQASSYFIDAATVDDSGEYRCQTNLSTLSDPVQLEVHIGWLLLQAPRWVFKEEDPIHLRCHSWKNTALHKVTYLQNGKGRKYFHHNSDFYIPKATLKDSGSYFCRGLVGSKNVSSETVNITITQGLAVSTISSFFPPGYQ

B1: H01DE4 (antibody)
heavy: not shown
light: not shown
chain: DKTHTCPPCPAPELLGGPDVFLFPPKPKDTLMISRTPEVTCVVVDVSHEDPEVKFNWYVDGVEVHNAKTKPREEQYNSTYRVVSVLTVLHQDWLNGKEYKCKVSNKALPAPEEKTISKAKGQPREPQVCTLPPSREEMTKNQVSLSCAVKGFYPSDIAVEWESNGQPENNYKTTPPVLDSDGSFFLVSKLTVDKSRWQQGNVFSCSVMHEALHNHYTQKSLSLSPGK
Question: For B1, which Kd is on record?
Answer: 0.11 nM
